Patent US11523990B2, “Non-covalent, self-organzing hydrogel matrix for biotechnological applications” (DENOVOMATRIX GMBH, priority 2012, dated 2022)
“Also recorded” adds a separate entry of the source.

Legend:
Type in all cases: physicochemical
[1] = Stability of formed hydrogels against different solvents; conditions: 24° C., at least three days
Description: In order to test the strength of the interaction between the peptide motif and the 14-kDa-heparin the formed hydrogels were tested with regard to different solvents. […] For this the peptide-starPEG-conjugates were mixed with 14 kDa-heparin in 50 μl in physiological phosphate buffer solution (1×PBS) to a final concentration of respectively 5 mM. Each solvent, i.e., physiological phosphate buffer solution (1×PBS), Milli-0-water, 1 M hydrochloric acid (HCl) 1 M sodium hydroxide solution (NaOH), saturated sodium chloride solution (NaCl), dimethyl sulfoxide (DMSO), ethanol and cell culture medium with 2% fetal bovine serum (FBS) were respectively added as 200 μl supernatant to the hydrogel. The hydrogel was incubated at a room temperature of 24° C. and the supernatants where exchanged every day for at least three days. All experiments were performed three times. Under none of the tested conditions the KA7-hydrogel could be destroyed. […] 2,2,2-trifuourethanlol (TFE) is known to destroy any type of secondary structures.

[2] = Hydrogel formation in different solvents; conditions: 5 mM conjugate + 5 mM 14-kDa-heparin
Description: Three respective different cases were tested in the hydrogel-formation stability test. […] The hydrogels were formed by mixing the final concentrations of respectively 5 mM peptide-starPEG-conjugate and 5 mM 14-kDa-heparin in 50 μl physiological phosphate buffer solution (1×PBS), Milli-Q-water or cell culture medium with 2% fetal bovine serum (FBS). The stability of the hydrogels was tested with the same solvent in which it was formed in 200 μl supernatant. The hydrogels were incubated at room temperature (24° C.), the supernatants were changed every day for at least three days in a row and the result after at least 3 days analyzed.

[3] = Erosion experiment with TAMRA-marked 14-kDa-heparin; conditions: 5 mM conjugate + 5 mM TAMRA-heparin, cell culture medium with 2% FBS, 37° C.
Description: Further, an erosion experiment was conducted. For this purpose peptide-starPEG-conjugates were respectively mixed with TAMRA-marked 14-kDa-heparin. For the erosion experiment the TAMRA-marked 14-kDa-heparin had to be synthesized beforehand. Hereby 14-kDa-heparin was marked with 5-(and-6)-carboxytetramethylrhodamin (TAMRA, Invitrogen) by using the 1-ethyl-3-(3-dimethylaminopropyl)carbodiimide/N-hydroxysulfosuccinimide-(EDAC/sNHS)-chemistry. Heparin, TAMRA, EDAC, sNHS and Na2CO3 were mixed at a ratio of 1:2:5:4:20 in water and incubated overnight. Thereafter the mixture was dialyzed for two days against 10 liters of water in a dialysis membrane with an exclusion limit of 8 kDa with constant exchange of water. The dialyzed product was filtered through a 0.22 μm polyvinylidene fluoride filter (PVDF-filter) and freeze-dried to a red product.
Subsequently the peptide-starPEG-conjugates were respectively mixed with the TAMRA-labelled 14-kDa-heaprin in 50 μl cell culture medium to a final concentration of 5 mM. […] The fluorescence was measured at defined time points in the supernatant by using a plate reading device (BECKMAN COULTER […] Detection platform, BECKAMN COULTER, Brea, Calif., USA) and black 96-well-plates with clear bottom.
Both peptides shoed without heparin a random coiled structure in Milli-Q-water. […] The fluorescence was measured in 200 μl of 1 ml supernatant. […]

[4] = High-throughput centrifuge analysis of mechanical properties of the hydrogels (surface deformation, metal bead penetration); conditions: 5 mM peptide-starPEG + 5 mM 14-kDa-heparin
Description: ATIII is a heparin-binding peptide known from the literature. All peptides are connected to a four-armed, maleimide functionalized 10-kDa-polyethylene glycol (starPEG). The hydrogel formation was tested in a 50 μI mixture, which contains 5 mM 14-kDa-heparin and 5 mM (2.5 mM) peptide-starPEG conjugate in phosphate buffer solution (1×PBS, pH 7.4). The deformation and penetration speed was analyzed through centrifuging the hydrogel in a 45° table centrifuge with 275 μm metal beads added to the surface. The deformation of the surface and the penetration of the metal beads were monitored in dependence on the applied force.
A comparative high-throughput analysis was performed regarding the mechanical properties of the hydrogels. In order to provide a fast high-throughput method for comparing small amounts of hydrogel, a tabletop centrifuge (5424R, Eppendorf, Hamburg, Germany) was used. For this purpose, 50 μl of the hydrogel were formed by mixing the peptide-starPEG-conjugates and 14-kDa-heparin in phosphate buffer (1×PBS, pH 7.4) to a final concentration of 5 mM (once 2.5 mM for KA7-starPEG). The mixture was incubated in 0.2 ml reaction vessels overnight. The deformation of the hydrogel surface was determined in reference to the 45° centrifuge rotor and the penetration of 275 μm metal beads in dependence on the force that has to be produced by the centrifuge. All experiments were repeated three times.
Hereby FIGS. 5A and B show a deformation of the surface of the 50 μl hydrogel in a 0.2 ml reaction tube, more specifically FIG. 5A below the speed required for deforming the surface, and FIG. 5B at the speed required for deforming the surface. FIG. 5C is a schematic representation of the penetration of a small spheres through 50 μl hydrogel in a 0.2 ml reaction tube depending on the force exerted by the 45° centrifuge.
The hydrogels were formed by mixing peptide-starPEG-conjugate and 14-kDa-heparin at 5 mM final concentration in 50 μl phosphate buffer (1×PBS). The analysis was performed by centrifuging the hydrogels in a 45° tabletop centrifuge with 275 μm metal beads on the gel surface. The deformation of the surface and the penetration of the spheres were recorded in dependence on the exerted force.

CWGGKAKAKAKAKA [KA5]
Stability of hydrogel against supernatant ([1]; supernatant 1M HCl): only destroyed by 1 M HCl after more than one week incubation; also recorded: Stable; hydrogel was
Stability of hydrogel against supernatant ([1]; supernatant 1M NaOH): Stable
Stability of hydrogel against supernatant ([1]; supernatant 1xPBS, 5 mM conjugate + 5 mM heparin gel): Stable
Stability of hydrogel against supernatant ([1]; supernatant Cell culture medium with 2% FBS): Stable
Stability of hydrogel against supernatant ([1]; supernatant DMSO): Stable
Stability of hydrogel against supernatant ([1]; supernatant Ethanol): Stable
Stability of hydrogel against supernatant ([1]; supernatant Saturated NaCl solution): Stable
Stability of hydrogel against supernatant ([1]; supernatant Water): Stable
Hydrogel formation in solvent ([2]; Cell culture medium with 2% FBS): formed
Hydrogel formation in solvent ([2]; PBS, 50 μl, result after at least 3 days): formed
Hydrogel formation in solvent ([2]; water (Milli-Q)): Formed
Heparin released from the hydrogel (erosion) [3]: more erosion
Deformation speed ([4]; 50 μl 1×PBS, 45° centrifuge): 11223 +/- 4768 m/s^2
Penetration speed ([4]; 275 μm metal beads): 21209 +/- 2188 m/s^2
